Experimental data published in patent US20240301086A1 (APTEVO RESEARCH AND DEVELOPMENT, published 2024).

T1: Full-length cynomolgus monkey PSMA (TSC308), on cells (cynomolgus monkey, UniProt Q04609 1-750 (human entry))
T1 construct: also called cyno PSMA; CHOK1SV/cynoPSMA
T1 chain: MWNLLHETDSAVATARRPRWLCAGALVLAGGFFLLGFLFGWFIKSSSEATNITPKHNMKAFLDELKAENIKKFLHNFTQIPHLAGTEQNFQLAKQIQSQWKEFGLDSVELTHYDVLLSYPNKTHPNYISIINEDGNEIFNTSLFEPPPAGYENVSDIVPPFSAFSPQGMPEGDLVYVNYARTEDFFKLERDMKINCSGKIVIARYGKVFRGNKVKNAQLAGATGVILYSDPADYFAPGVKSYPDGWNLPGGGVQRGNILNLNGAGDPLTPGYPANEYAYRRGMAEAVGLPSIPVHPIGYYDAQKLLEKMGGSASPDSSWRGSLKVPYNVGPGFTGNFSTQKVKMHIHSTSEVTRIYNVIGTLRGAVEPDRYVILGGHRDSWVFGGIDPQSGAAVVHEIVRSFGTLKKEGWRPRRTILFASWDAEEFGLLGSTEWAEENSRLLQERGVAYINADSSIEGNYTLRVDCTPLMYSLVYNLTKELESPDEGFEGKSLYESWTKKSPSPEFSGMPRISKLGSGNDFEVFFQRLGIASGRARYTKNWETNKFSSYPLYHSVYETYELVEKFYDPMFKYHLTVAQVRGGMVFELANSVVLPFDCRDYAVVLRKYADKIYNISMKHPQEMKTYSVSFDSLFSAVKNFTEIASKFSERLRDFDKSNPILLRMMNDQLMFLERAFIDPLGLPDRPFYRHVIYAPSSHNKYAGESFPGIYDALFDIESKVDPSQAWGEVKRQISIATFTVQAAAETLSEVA

B1: PSMA01020 Anti-PSMA scFv-Fc (Fc fusion)
chain: DIQMTQSPSTLSASVGDRVTITCRASKSISKYLAWYQQKPGKAPKLLIHSGSSLESGVPSRFSGSGSGTEFTLTISSLQPDDFATYYCQQHIEYPWTFGQGTKVEIKGGGGSGGGGSGGGGSGGGGSEVQLLESGGGLVQPGGSLRLSCAASGYTFTDYYIHWVRQAPGKGLEWIGSFNPYNDYTSYADSVKGRATLSVDKSKNTAYLQMNSLRAEDTAVYYCARSDGYYDAMDYWGQGTLVTVSSSEPKSSDKTHTCPPCPAPEAAGAPSVFLFPPKPKDTLMISRTPEVTCVVVDVSHEDPEVKFNWYVDGVEVHNAKTKPREEQYNSTYRVVSVLTVLHQDWLNGKEYKCAVSNKALPAPIEKTISKAKGQPREPQVYTLPPSRDELTKNQVSLTCLVKGFYPSDIAVEWESNGQPENNYKTTPPVLDSDGSFFLYSKLTVDKSRWQQGNVFSCSVMHEALHNHYTQKSLSLSPGK
notes: Monospecific, bivalent scFv-Fc, VL-VH
B2: PSMA01026 Anti PSMA scFv-Fc; Anti CD3 scFv-Fc (bispecific antibody)
chain 1: DIQMTQSPSTLSASVGDRVTITCRASKSISKYLAWYQQKPGKAPKLLIHSGSSLESGVPSRFSGSGSGTEFTLTISSLQPDDFATYYCQQHIEYPWTFGQGTKVEIKGGGGSGGGGSGGGGSGGGGSQVQLVQSGAEVKKPGASVKVSCKASGYTFTDYYMHWVRQAPGQGLEWMGYFNPYNDYTRYAQKFQGRVTMTRDTSTSTVYMELSSLRSEDTAVYYCARSDGYYDAMDYWGQGTTVTVEPKSSDKTHTCPPCPAPPAAAPSVFLFPPKPKDTLMISRTPEVTCVVVDVSHEDPEVKFNWYVDGVEVHNAKTKPREEQYNSTYRVVSVLTVLHQDWLNGKEYKCAVSNKALPAPIEKTISKAKGQPREPQVYTLPPSRDELTKNQVSLWCLVKGFYPSDIAVEWESNGQPENNYKTTPPVLDSDGSFFLYSKLTVDKSRWQQGNVFSCSVMHEALHNHYTQKSLSLSPG
chain 2: QVQLVQSGAEVKKPGASVKVSCKASGYTFTRSTMHWVRQAPGQGLEWIGYINPSSAYTNYAQKFQGRVTLTADKSTSTAYMELSSLRSEDTAVYYCASPQVHYDYNGFPYWGQGTLVTVSSGGGGSGGGGSGGGGSGGGGSDIQMTQSPSSLSASVGDRVTITCRASSSVSYMNWYQQKPGKAPKRWIYDSSKLASGVPSRFSGSGSGTDFTLTISSLQPEDFATYYCQQWSRNPPTFGQGTKVEIKEPKSSDKTHTCPPCPAPPAAAPSVFLFPPKPKDTLMISRTPEVTCVVVDVSHEDPEVKFNWYVDGVEVHNAKTKPREEQYNSTYRVVSVLTVLHQDWLNGKEYKCAVSNKALPAPIEKTISKAKGQPREPQVYTLPPSRDELTKNQVSLSCAVKGFYPSDIAVEWESNGQPENNYKTTPPVLDSDGSFFLVSKLTVDKSRWQQGNVFSCSVMHEALHNRFTQKSLSLSPG
B3: PSMA01070 Anti PSMA scFv-Fc; Anti CD3 scFv-Fc (bispecific antibody)
chain 1: QVQLVQSGAEVKKPGASVKVSCKASGYTFTDYYMHWVRQAPGQGLEWMGYFNPYNDYTRYAQKFQGRVTMTRDTSTSTVYMELSSLRSEDTAVYYCARSDGYYDAMDYWGQGTTVTVSSGGGGSGGGGSGGGGSGGGGSDIQMTQSPSSLSASVGDRVTITCRASKSISKYLAWYQQKPGKAPKLLIHSGSSLESGVPSRFSGSGSGTEFTLTISSLQPDDFATYYCQQHIEYPWTFGQGTKVEIKEPKSSDKTHTCPPCPAPPAAAPSVFLFPPKPKDTLMISRTPEVTCVVVDVSHEDPEVKFNWYVDGVEVHNAKTKPREEQYNSTYRVVSVLTVLHQDWLNGKEYKCAVSNKALPAPIEKTISKAKGQPREPQVYTLPPSRDELTKNQVSLWCLVKGFYPSDIAVEWESNGQPENNYKTTPPVLDSDGSFFLYSKLTVDKSRWQQGNVFSCSVMHEALHNHYTQKSLSLSPG
chain 2: B2 chain 2
B4: PSMA01072 Anti PSMA scFv x Anti CD3 scFv ADAPTIR (bispecific antibody)
chain: QVQLVQSGAEVKKPGASVKVSCKASGYTFTDYYMHWVRQAPGQGLEWMGYFNPYNDYTRYAQKFQGRVTMTRDTSTSTVYMELSSLRSEDTAVYYCARSDGYYDAMDYWGQGTTVTVSSGGGGSGGGGSGGGGSGGGGSDIQMTQSPSSLSASVGDRVTITCRASKSISKYLAWYQQKPGKAPKLLIHSGSSLESGVPSRFSGSGSGTEFTLTISSLQPDDFATYYCQQHIEYPWTFGQGTKVEIKEPKSSDKTHTCPPCPAPPAAAPSVFLFPPKPKDTLMISRTPEVTCVVVDVSHEDPEVKFNWYVDGVEVHNAKTKPREEQYNSTYRVVSVLTVLHQDWLNGKEYKCAVSNKALPAPIEKTISKAKGQPREPQVYTLPPSRDELTKNQVSLTCLVKGFYPSDIAVEWESNGQPENNYKTTPPVLDSDGSFFLYSKLTVDKSRWQQGNVFSCSVMHEALHNHYTQKSLSLSPGGGGSPSQVQLVQSGAEVKKPGASVKVSCKASGYTFTRSTMHWVRQAPGQGLEWIGYINPSSAYTNYAQKFQGRVTLTADKSTSTAYMELSSLRSEDTAVYYCASPQVHYDYNGFPYWGQGTLVTVSSGGGGSGGGGSGGGGSGGGGSDIQMTQSPSSLSASVGDRVTITCRASSSVSYMNWYQQKPGKAPKRWIYDSSKLASGVPSRFSGSGSGTDFTLTISSLQPEDFATYYCQQWSRNPPTFGQGTKVEIKRS
notes: also called PSMA1072

Key:
[1] = target: T2, Human PSMA ECD-AFH (TSC033), recombinant dimeric PSMA ECD (human, UniProt Q04609 44-750); test: SPR (Biacore T200), scFv-Fc captured on anti-human IgG, dimeric PSMA ECD as analyte, 1:1 fit
T2 construct: SEC-purified dimer; also called HuPSMA-AFH; Avi-His-Human PSMA ECD
T2 sequence (Q04609 other isoform, or with tags, fused parts or gaps): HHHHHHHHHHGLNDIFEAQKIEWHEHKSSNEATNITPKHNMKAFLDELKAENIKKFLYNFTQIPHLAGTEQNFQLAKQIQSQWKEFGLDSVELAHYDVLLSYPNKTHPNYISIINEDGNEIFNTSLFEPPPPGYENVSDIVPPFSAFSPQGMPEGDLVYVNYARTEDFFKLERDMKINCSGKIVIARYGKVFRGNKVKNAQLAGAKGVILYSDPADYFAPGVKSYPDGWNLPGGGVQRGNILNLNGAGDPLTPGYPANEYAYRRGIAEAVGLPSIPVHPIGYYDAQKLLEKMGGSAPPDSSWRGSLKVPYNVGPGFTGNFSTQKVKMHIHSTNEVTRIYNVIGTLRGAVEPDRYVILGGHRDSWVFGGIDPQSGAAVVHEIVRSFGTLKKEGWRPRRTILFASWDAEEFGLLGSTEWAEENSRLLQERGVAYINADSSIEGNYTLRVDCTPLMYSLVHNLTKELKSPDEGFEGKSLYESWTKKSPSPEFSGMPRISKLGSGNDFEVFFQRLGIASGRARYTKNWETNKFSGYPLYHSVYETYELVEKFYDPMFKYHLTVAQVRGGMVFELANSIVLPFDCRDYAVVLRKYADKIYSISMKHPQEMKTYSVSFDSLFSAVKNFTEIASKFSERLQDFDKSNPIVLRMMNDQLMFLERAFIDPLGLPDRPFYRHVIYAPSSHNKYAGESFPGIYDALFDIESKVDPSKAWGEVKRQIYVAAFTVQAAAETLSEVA
Protocol: Mouse anti-human IgG (GE, BR-1008-39) at 25 μg/ml in 10 mM sodium acetate pH 5.0 was immobilized at a density of ˜2,000-4,000 response units (RU) onto each flow cell of a CM5 research-grade sensor chip (GE) by standard amine coupling chemistry. Each anti-PSMA protein at approximately 40 nM in dPBS with 0.2% BSA buffer was captured in a flow cell with the immobilized anti-human IgG at a flow rate of […] for up to 30 seconds, leaving one flow cell surface unmodified as the reference. Using a multi-cycle kinetics mode, a buffer blank and […] different concentrations of ECD ranging from 1 nM to 243 nM were sequentially injected through each flow cell at 30 μL/min with association times varying from 300-600 seconds and dissociation times varying from 600-1200 seconds. Regeneration was achieved by injection of 3 M MgCl₂ at a flow rate of 30 μL/min for up to 40 seconds followed by dPBS with 0.2% BSA buffer stabilization for 1 min.
Sensorgrams obtained from kinetic SPR measurements were analyzed using the double subtraction method. The signal from the reference flow cell was subtracted from the analyte binding response obtained from flow cells with captured ligands. The buffer blank response was then subtracted from analyte binding responses and the final double-referenced data were analyzed with Biacore T200 Evaluation software (2.0, GE), globally fitting data to derive kinetic parameters. All sensorgrams were fitted using a simple one-to-one binding model.

[2] = target: T3, Full-length Human PSMA (TSC435), on cells (human, UniProt Q04609 1-750); test: cell binding on CHOK1SV/humanPSMA transfectants, MSD electrochemiluminescence (ECL), SULFO-TAG goat anti-human IgG
T3 construct: also called CHOK1SV/huPSMA; PSMA on C4-2B, 22RV1, LNCaP, MDA-PCa-2b cells
Protocol: (§1) To measure the relative binding activity of humanized PSMA-binding domain variants, constructs were tested in cell binding assays on CHOK1SV cells transfected with human or cynomolgus PSMA. The generation of CHOK1SV/huPSMA cells was described earlier; CHOK1SV/cynoPSMA cells were generated using the same method. Bivalent PSMA-binding domains variants in scFv-Fc format (constructs PSMA01019, PSMA01020, PSMA01021, PSMA01023, PSMA01024 and PSMA01025) were tested in these assays.
(§2) Binding studies on CHOK1SV transfectants were performed in live cell-based ELISA using electrochemiluminescence (Meso Scale Discovery). CHOK1SV cells were washed and seeded at 50,000 cells/well in 1× Hank's Balanced Salt Solution (HBSS) on 96-well Multi-Array High Bind plates (Meso Scale Discovery) and incubated at 37° C. for one hour. Following a blocking step in PBS buffer with 20% FBS, serial dilutions of PSMA-binding constructs (from 0.002 to 100 nM) were added in PBS buffer with 10% FBS and incubated at room temperature for one hour. Plates were washed with PBS and the specific binding levels were detected by SULFO TAG-labeled goat anti-human IgG antibody (Meso Scale Discovery #R32AJ). Following an hour incubation and wash steps, 150 μL/well surfactant free 1× Read Buffer T were added and samples were analyzed on MSD Sector Imager (Meso Scale Discovery). Resulting electrochemiluminescence (ECL) values versus concentrations were plotted and nonlinear regression analysis to determine EC50 values was performed in GraphPad Prism 7® graphing and statistics software.

[3] = target: T1, Full-length cynomolgus monkey PSMA …; test: cell binding on CHOK1SV/cynoPSMA transfectants, MSD electrochemiluminescence (ECL), SULFO-TAG goat anti-human IgG
Protocol: as §1, §2

[4] = target: T3, Full-length Human PSMA (TSC435), on …; test: flow cytometry on C4-2B cells, PE goat anti-human IgG Fc secondary, MFI (median)
[5] = target: T4, human CD3ε in the TCR/CD3 complex on Jurkat cells (human, UniProt P07766 23-207); test: flow cytometry on Jurkat cells, PE goat anti-human IgG Fc secondary, MFI (median)
T4 construct: whole, on cells; On the cells it stands in the whole TCR/CD3 complex; also called CD3 (+) cells; CD3-expressing Jurkat cells
T4 sequence (P07766 23-207, one chain of several): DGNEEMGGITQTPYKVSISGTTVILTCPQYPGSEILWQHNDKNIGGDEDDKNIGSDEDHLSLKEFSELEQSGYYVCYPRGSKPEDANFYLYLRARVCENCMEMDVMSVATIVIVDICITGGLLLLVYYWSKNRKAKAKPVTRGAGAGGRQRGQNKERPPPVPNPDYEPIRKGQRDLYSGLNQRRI

Binder | Kd [1] | koff [1] | kon [1] | EC50 [2] | EC50 [3] | EC50 [4] | EC50 [5]
B1 | 16 nM | 0.00019 s⁻¹ | 12000 M⁻¹ s⁻¹ | 4 nM | 8 nM |  | 
B2 |  |  |  |  |  | 23 nM | 26 nM
B3 |  |  |  |  |  | 30 nM | 52 nM
B4 |  |  |  |  |  | 1 nM | 1 nM
